Legend:
[1] = target: T1, epitope region-containing peptide fragment (AFPPEVIGPLFFFPLLYMIFQLGEG-biotin) (Homo sapiens, UniProt Q14973); experiment: Surface plasmon resonance assay (BIAcore) of antigen binding affinity
T1 sequence (Q14973 273-297 limits assumed): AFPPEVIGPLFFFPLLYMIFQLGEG
Method: In short, a carboxymethylated dextran biosensor chip (CM5, BIAcore Inc.) was activated by N-ethyl-N′-(3-dimethylaminopropyl)-carbodiimide hydrochloride (EDC) and N-hydroxysuccinimide (NHS) in accordance with the provider's instruction. An anti-mouse IgG antibody was diluted with 10 mM sodium acetate (pH5.2) up to 30 μg/ml. The dilution was injected at a flow rate of 5 to 10 μl/minute such that the reaction unit (RU) of the protein bound became 9,000 to 14,000 RU. In contrast, an anti-human IgG antibody was diluted with 10 mM sodium acetate (pH5.0) up to 25 μg/ml. The diluted antibody was injected at a flow rate of 5 to 10 μl/minute such that the reaction unit (RU) of the protein bound became 9,000 to 14,000 RU. After injection of each of the anti IgG antibodies, 1 M ethanolamine was injected in order to block unreactive groups. For kinetic measurement, N6HB426 antibody diluted with a running buffer (HBS-P: 10 mM HEPES pH7.5, 150 mM NaCl, 0.005% NP40) up to 10 μg/ml was immobilized onto CM5 chip via the anti-mouse IgG antibody, in advance. To the chip, a solution of an epitope region-containing peptide fragment ([…]-biotin: SEQ ID NO: 24) diluted with the running buffers at different concentrations was added at 25° C. at a flow rate of 10 μl/minute for 2 minutes. In contrast, the recombinant N6HB426 human chimeric IgG4 antibody was diluted with the running buffer up to 10 μg/ml and then was immobilized onto a sensor chip (CM5) via the anti-human IgG antibody in advance. To the chip, a solution of an epitope region-containing peptide fragment diluted with the running buffers at different concentrations was added at 25° C. at a flow rate of 10 μl/minute for 2 minutes.
The refractive index of the solution varied in correlation to the mass of a chip surface changed when a peptide fragment molecule bound to N6HB426 antibody on the sensor chip, was monitored in real-time. Using simple one-to-one Langmuir binding model (BIAcore Evaluation software version 3.1) by fitting sensor grams of antigen-antibody association and dissociation at the same time, association rate (Ka) and dissociation rate (Kd) were calculated. A Kd/Ka ratio was calculated to obtain an equilibrium dissociation constant (KD).

[2] = tested on: HBV (Genotype C or Genotype D); experiment: Live HBV infection of normal human hepatocytes (PXB cells), HBs antigen; settings: FIG. 2B, listed as N6HB426-20 antibody gene-derived recombinant antibody
[3] = 25° C., antibody immobilized on CM5 chip

B1: Recombinant mouse IgG2a antibody: N6HB426 variable regions connected to a constant region of mouse IgG2a antibody (antibody)
heavy: QVQLQQSGAELVKPGASVKLSCKASDFTFTEYTIHWIKQMSGQGLEWIGWFYPGSGDIKYSEKFKDKATLTADKSSSTVYMELNRLTSEDSAVYFCARHMRDFRGFYYGRFYFDYWGQGTTLTVSSAKTTAPSVYPLAPVCGGTTGSSVTLGCLVKGYFPEPVTLTWNSGSLSSGVHTFPALLQSGLYTLSSSVTVTSNTWPSQTITCNVAHPASSTKVDKKIEPRGPTIKPCPPCKCPAPNLLGGPSVFIFPPKIKDVLMISLSPIVTCVVVDVSEDDPDVQISWFVNNVEVHTAQTQTHREDYNSTLRVVSALPIQHQDWMSGKEFKCKVNNKDLPAPIERTISKPKGSVRAPQVYVLPPPEEEMTKKQVTLTCMVTDFMPEDIYVEWTNNGKTELNYKNTEPVLDSDGSYFMYSKLRVEKKNWVERNSYSCSVVHEGLHNHHTTKSFSRTPGK
light: EIVLTQSPAIMSASPGEKVTITCRASSSVSSSYLHWYQQKSGVSPKLWIYSTSNLASGVPARFSGSGSGTSYSLTINSVEAEDAATYYCQQYSGYRWTFGGGTTLEIKRADAAPTVSIFPPSSEQLTSGGASVVCFLNNFYPKDINVKWKIDGSERQNGVLNSWTDQDSKDSTYSMSSTLTLTKDEYERHNSYTCEATHKTSTSPIVKSFNRNEC
[1]
  Kd: ~0.1 nM
[1]; [3]
  Ka (1/Ms) association rate: 761.7 M⁻¹ s⁻¹
  Kd (1/s) dissociation rate: 2.39e-07 s⁻¹
[2]
  inhibitory activity on infection of normal human hepatocytes with HBV: comparable activity
